# Test results published in patent US20210371527A1 (published 2021).
# Where two headings read alike, the source gives them in different places.
# B1: deferoxamine conjugated humanized IAB41-1 minibody (other)
# chain: EIVLTQSPATLSLSPGERATLSCSARSSVSYLYWYQQKPGQAPRLLIYDTSNLASGIPDRFSGSGSGTDFTLTISRLEPEDAAVYYCQQWSDYPLTFGGGTKLEIKGSTSGGGSGGGSGGGGSSQVQLVQSGAEVKKPGASVKVSCKASGYSFANYWMHWVRQAPGQRLEWIGALYPGNVDTTYNQKFQGRVTITRDTSASTAYMELSSLRSEDTAVYYCTRMGTTLEAPLDYWGQGTLVTVSSEPKSSDKTHTCPPCPPCGGGSSGGGSGGQPREPQVYTLPPSREEMTKNQVSLTCLVKGFYPSDIAVEWESNGQPENNYKTTPPVLDSDGSFFLYSKLTVDKSRWQQGNVFSCSVMHEALHNHYTQKSLSLSPG
# modifications: deferoxamine (Df) chelator conjugated; sites of conjugation not stated
# B2: humanized IAB41-1 minibody (other)
# chain: B1 chain
# Columns and labels:
# [1] = biological target: T1, human CD4 on HPB-ALL cells (UniProt P01730 26-458); assay: flow cytometry
# [2] = biological target: T1, human CD4 on HPB-ALL cells; assay: flow cytometry; remark: listed apart in the source
EC50 [1] [nM],EC50 [2] [nM],Binder
3.05,,B1
,1.77,B2
